Measurements published in publication PMC13086964 (Nature Communications, 2026).

Columns and labels:
[1] = biological target: T1, recombinant full length His6-MBP-FAN1-His6 (human, UniProt Q9Y2M0 1-1017); test: pull-down; in vitro streptavidin pull-down with recombinant biotin-tagged USP7 TRAF-like or UBL domains and MBP-His-tagged FAN1 (Figure S3A); settings: both partners purified
T1 construct: human FAN1, full length; Tag ends are read from the printed name His6-MBP-FAN1-His6; also called MBP-His-tagged FAN1; recombinant human FAN1; source: E. coli BL21, purified (HisTrap, MBPTrap, desalting); not shown: His6, N-terminal, kept; MBP, N-terminal, kept; His6, C-terminal, kept
T1 sequence (looked up): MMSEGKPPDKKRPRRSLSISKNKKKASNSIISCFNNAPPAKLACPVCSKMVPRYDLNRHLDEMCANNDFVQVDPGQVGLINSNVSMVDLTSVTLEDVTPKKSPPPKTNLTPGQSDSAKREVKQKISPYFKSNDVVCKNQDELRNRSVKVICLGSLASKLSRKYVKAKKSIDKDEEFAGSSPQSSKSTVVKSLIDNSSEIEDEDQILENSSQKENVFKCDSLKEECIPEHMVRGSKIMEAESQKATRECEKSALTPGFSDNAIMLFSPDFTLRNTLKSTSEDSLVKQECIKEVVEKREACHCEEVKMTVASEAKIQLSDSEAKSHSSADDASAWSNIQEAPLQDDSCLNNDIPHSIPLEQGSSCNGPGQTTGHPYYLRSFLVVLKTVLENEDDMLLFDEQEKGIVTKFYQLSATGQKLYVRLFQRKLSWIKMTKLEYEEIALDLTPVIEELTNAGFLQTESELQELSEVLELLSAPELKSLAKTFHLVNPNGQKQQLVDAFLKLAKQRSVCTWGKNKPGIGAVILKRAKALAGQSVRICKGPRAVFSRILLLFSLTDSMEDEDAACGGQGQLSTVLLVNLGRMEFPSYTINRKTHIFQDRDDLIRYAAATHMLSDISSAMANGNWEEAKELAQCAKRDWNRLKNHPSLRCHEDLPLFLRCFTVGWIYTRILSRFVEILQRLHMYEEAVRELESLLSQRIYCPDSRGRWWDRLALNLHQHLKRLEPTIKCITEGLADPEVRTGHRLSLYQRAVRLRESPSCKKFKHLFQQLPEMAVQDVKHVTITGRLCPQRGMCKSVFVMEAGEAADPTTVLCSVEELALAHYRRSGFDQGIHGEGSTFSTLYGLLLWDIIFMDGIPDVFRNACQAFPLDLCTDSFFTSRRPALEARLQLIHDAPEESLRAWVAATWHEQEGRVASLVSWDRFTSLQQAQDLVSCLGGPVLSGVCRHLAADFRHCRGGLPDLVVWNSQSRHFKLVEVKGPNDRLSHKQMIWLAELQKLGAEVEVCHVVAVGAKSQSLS

[2] = biological target: T2, purified recombinant His-USP7, full-length (human, UniProt Q93009 1-1102); test: pull-down; GST-FAN1-NTD on Glutathione Sepharose beads, 0.5 µg recombinant His-USP7, 1 h at 4 °C in PBS-1% Triton; washes with 300 mM NaCl; immunoblotting; settings: both partners purified
T2 construct: human USP7, recombinant, full-length; also called human recombinant USP7; source: bought: R&D Systems (# E-519)
T2 sequence (Q93009 whole entry): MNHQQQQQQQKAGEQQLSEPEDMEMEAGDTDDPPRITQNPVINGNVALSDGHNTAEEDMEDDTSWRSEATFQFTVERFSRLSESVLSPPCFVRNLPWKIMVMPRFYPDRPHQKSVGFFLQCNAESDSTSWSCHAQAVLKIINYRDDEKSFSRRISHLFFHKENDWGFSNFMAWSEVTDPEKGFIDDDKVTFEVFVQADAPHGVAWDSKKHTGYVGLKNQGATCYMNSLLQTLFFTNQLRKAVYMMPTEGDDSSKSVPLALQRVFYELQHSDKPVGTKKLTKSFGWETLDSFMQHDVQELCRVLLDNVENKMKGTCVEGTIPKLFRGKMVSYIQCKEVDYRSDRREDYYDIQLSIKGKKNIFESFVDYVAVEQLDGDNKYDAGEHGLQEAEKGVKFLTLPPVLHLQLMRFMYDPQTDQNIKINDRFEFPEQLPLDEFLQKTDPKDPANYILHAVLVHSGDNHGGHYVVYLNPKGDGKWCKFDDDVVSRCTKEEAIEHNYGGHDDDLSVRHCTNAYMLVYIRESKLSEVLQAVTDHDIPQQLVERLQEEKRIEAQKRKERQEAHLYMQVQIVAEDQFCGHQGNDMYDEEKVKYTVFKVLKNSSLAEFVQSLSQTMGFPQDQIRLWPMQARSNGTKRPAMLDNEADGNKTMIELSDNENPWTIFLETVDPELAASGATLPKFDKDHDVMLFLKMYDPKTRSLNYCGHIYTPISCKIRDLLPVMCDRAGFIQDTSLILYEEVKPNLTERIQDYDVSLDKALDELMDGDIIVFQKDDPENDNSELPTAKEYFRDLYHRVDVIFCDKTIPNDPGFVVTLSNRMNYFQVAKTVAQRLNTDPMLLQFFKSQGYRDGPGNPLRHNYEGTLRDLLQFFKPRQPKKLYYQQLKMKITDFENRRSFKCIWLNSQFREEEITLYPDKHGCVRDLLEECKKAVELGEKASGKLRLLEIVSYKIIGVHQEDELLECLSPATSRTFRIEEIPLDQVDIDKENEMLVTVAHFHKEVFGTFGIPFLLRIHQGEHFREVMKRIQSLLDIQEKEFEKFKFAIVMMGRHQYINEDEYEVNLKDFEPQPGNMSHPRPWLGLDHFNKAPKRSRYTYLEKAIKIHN

Binder | binding result [1] | binding result [2]
USP7 UBL domain (residues 520-1067), biotinylated (domain or fragment, human, UniProt Q93009 520-1067, looked up, biotin (on the AviTag), human USP7 UBL domain, residues 520-1067; p28BIOH-LIC vector; also called USP7 UBL domains; source: E. coli BL21(DE3)-pBirAcm, purified (TALON, SEC); not shown: AviTag, N-terminal, kept) RESKLSEVLQAVTDHDIPQQLVERLQEEKRIEAQKRKERQEAHLYMQVQIVAEDQFCGHQGNDMYDEEKVKYTVFKVLKNSSLAEFVQSLSQTMGFPQDQIRLWPMQARSNGTKRPAMLDNEADGNKTMIELSDNENPWTIFLETVDPELAASGATLPKFDKDHDVMLFLKMYDPKTRSLNYCGHIYTPISCKIRDLLPVMCDRAGFIQDTSLILYEEVKPNLTERIQDYDVSLDKALDELMDGDIIVFQKDDPENDNSELPTAKEYFRDLYHRVDVIFCDKTIPNDPGFVVTLSNRMNYFQVAKTVAQRLNTDPMLLQFFKSQGYRDGPGNPLRHNYEGTLRDLLQFFKPRQPKKLYYQQLKMKITDFENRRSFKCIWLNSQFREEEITLYPDKHGCVRDLLEECKKAVELGEKASGKLRLLEIVSYKIIGVHQEDELLECLSPATSRTFRIEEIPLDQVDIDKENEMLVTVAHFHKEVFGTFGIPFLLRIHQGEHFREVMKRIQSLLDIQEKEFEKFKFAIVMMGRHQYINEDEYEVNLKDFEPQP | binds | 
GST-FAN1-NTD (aa 1-372) (domain or fragment, human, UniProt Q9Y2M0 1-372, looked up, also called GST-tagged FAN1; source: E. coli BL21-CodonPlus RIL, purified from soluble extracts on Glutathione Sepharose beads) MMSEGKPPDKKRPRRSLSISKNKKKASNSIISCFNNAPPAKLACPVCSKMVPRYDLNRHLDEMCANNDFVQVDPGQVGLINSNVSMVDLTSVTLEDVTPKKSPPPKTNLTPGQSDSAKREVKQKISPYFKSNDVVCKNQDELRNRSVKVICLGSLASKLSRKYVKAKKSIDKDEEFAGSSPQSSKSTVVKSLIDNSSEIEDEDQILENSSQKENVFKCDSLKEECIPEHMVRGSKIMEAESQKATRECEKSALTPGFSDNAIMLFSPDFTLRNTLKSTSEDSLVKQECIKEVVEKREACHCEEVKMTVASEAKIQLSDSEAKSHSSADDASAWSNIQEAPLQDDSCLNNDIPHSIPLEQGSSCNGPGQTTGH |  | binds
